Test results from patent publication US20260242735A1.

Legend:
human CD33 F43L (human) = human CD33 F43L (human) (UniProt P20138); experiment: flow cytometry on transfected cells, IgG
human CD33 F43V (human) = human CD33 F43V (human) (UniProt P20138); experiment: flow cytometry on transfected cells, IgG
human CD33 F44H (human) = human CD33 F44H (human) (UniProt P20138); experiment: flow cytometry on transfected cells, IgG
human CD33 F44I (human) = human CD33 F44I (human) (UniProt P20138); experiment: flow cytometry on transfected cells, IgG
human CD33 F44L (human) = human CD33 F44L (human) (UniProt P20138); experiment: flow cytometry on transfected cells, IgG
human CD33 F44L (human), sequence (P20138 18-364 F44L limits assumed): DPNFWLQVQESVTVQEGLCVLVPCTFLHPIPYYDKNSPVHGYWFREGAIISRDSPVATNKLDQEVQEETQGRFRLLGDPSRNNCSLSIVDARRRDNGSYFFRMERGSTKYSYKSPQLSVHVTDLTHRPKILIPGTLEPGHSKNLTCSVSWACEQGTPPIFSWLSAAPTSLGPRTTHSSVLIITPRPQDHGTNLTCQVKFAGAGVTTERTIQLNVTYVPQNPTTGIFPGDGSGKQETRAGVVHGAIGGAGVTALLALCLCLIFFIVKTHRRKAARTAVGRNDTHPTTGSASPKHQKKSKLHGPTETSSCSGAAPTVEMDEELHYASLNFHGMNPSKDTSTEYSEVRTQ

human CD33 F44P (human) = human CD33 F44P (human) (UniProt P20138); experiment: flow cytometry on transfected cells, IgG
human CD33 F44S (human) = human CD33 F44S (human) (UniProt P20138); experiment: flow cytometry on transfected cells, IgG
human CD33 F44S (human), sequence (P20138 18-364 F44S limits assumed): as the sequence (P20138 18-364 F44L limits assumed) above, with L27S counted along it

human CD33 H45Y (human) = human CD33 H45Y (human) (UniProt P20138); experiment: flow cytometry on transfected cells, IgG
human CD33 I47E (human) = human CD33 I47E (human) (UniProt P20138); experiment: flow cytometry on transfected cells, IgG
human CD33 I47G (human) = human CD33 I47G (human) (UniProt P20138); experiment: flow cytometry on transfected cells, IgG
human CD33 I47G (human), sequence (P20138 18-364 I47G limits assumed): as the sequence (P20138 18-364 F44L limits assumed) above, with L27F, I30G counted along it

human CD33 I47N (human) = human CD33 I47N (human) (UniProt P20138); experiment: flow cytometry on transfected cells, IgG
human CD33 I47N (human), sequence (P20138 18-364 I47N limits assumed): as the sequence (P20138 18-364 F44L limits assumed) above, with L27F, I30N counted along it

human CD33 I47Q (human) = human CD33 I47Q (human) (UniProt P20138); experiment: flow cytometry on transfected cells, IgG
human CD33 I47Q (human), sequence (P20138 18-364 I47Q limits assumed): as the sequence (P20138 18-364 F44L limits assumed) above, with L27F, I30Q counted along it

human CD33 I47T (human) = human CD33 I47T (human) (UniProt P20138); experiment: flow cytometry on transfected cells, IgG
human CD33 I47T (human), sequence (P20138 18-364 I47T limits assumed): as the sequence (P20138 18-364 F44L limits assumed) above, with L27F, I30T counted along it

human CD33 I47V (human) = human CD33 I47V (human) (UniProt P20138); experiment: flow cytometry on transfected cells, IgG
human CD33 I47W (human) = human CD33 I47W (human) (UniProt P20138); experiment: flow cytometry on transfected cells, IgG
human CD33 I47Y (human) = human CD33 I47Y (human) (UniProt P20138); experiment: flow cytometry on transfected cells, IgG
human CD33 P46F (human) = human CD33 P46F (human) (UniProt P20138); experiment: flow cytometry on transfected cells, IgG
human CD33 P46I (human) = human CD33 P46I (human) (UniProt P20138); experiment: flow cytometry on transfected cells, IgG
human CD33 P46R (human) = human CD33 P46R (human) (UniProt P20138); experiment: flow cytometry on transfected cells, IgG
human CD33 P46S (human) = human CD33 P46S (human) (UniProt P20138); experiment: flow cytometry on transfected cells, IgG
human CD33 P46Y (human) = human CD33 P46Y (human) (UniProt P20138); experiment: flow cytometry on transfected cells, IgG
human CD33 P48D (human) = human CD33 P48D (human) (UniProt P20138); experiment: flow cytometry on transfected cells, IgG
human CD33 P48F (human) = human CD33 P48F (human) (UniProt P20138); experiment: flow cytometry on transfected cells, IgG
human CD33 P48G (human) = human CD33 P48G (human) (UniProt P20138); experiment: flow cytometry on transfected cells, IgG
human CD33 P48K (human) = human CD33 P48K (human) (UniProt P20138); experiment: flow cytometry on transfected cells, IgG
human CD33 P48K (human), sequence (P20138 18-364 P48K limits assumed): as the sequence (P20138 18-364 F44L limits assumed) above, with L27F, P31K counted along it

human CD33 P48L (human) = human CD33 P48L (human) (UniProt P20138); experiment: flow cytometry on transfected cells, IgG
human CD33 P48T (human) = human CD33 P48T (human) (UniProt P20138); experiment: flow cytometry on transfected cells, IgG
human CD33 P48V (human) = human CD33 P48V (human) (UniProt P20138); experiment: flow cytometry on transfected cells, IgG
human CD33 P48W (human) = human CD33 P48W (human) (UniProt P20138); experiment: flow cytometry on transfected cells, IgG
human CD33 P48W (human), sequence (P20138 18-364 P48W limits assumed): as the sequence (P20138 18-364 F44L limits assumed) above, with L27F, P31W counted along it

human CD33 T42N (human) = human CD33 T42N (human) (UniProt P20138); experiment: flow cytometry on transfected cells, IgG
human CD33 T42P (human) = human CD33 T42P (human) (UniProt P20138); experiment: flow cytometry on transfected cells, IgG
human CD33 T42P (human), sequence (P20138 18-364 T42P limits assumed): as the sequence (P20138 18-364 F44L limits assumed) above, with T25P, L27F counted along it

human CD33 Y49D (human) = human CD33 Y49D (human) (UniProt P20138); experiment: flow cytometry on transfected cells, IgG
human CD33 Y49D (human), sequence (P20138 18-364 Y49D limits assumed): as the sequence (P20138 18-364 F44L limits assumed) above, with L27F, Y32D counted along it

human CD33 Y49H (human) = human CD33 Y49H (human) (UniProt P20138); experiment: flow cytometry on transfected cells, IgG
human CD33 Y49I (human) = human CD33 Y49I (human) (UniProt P20138); experiment: flow cytometry on transfected cells, IgG
human CD33 Y49L (human) = human CD33 Y49L (human) (UniProt P20138); experiment: flow cytometry on transfected cells, IgG
human CD33 Y49P (human) = human CD33 Y49P (human) (UniProt P20138); experiment: flow cytometry on transfected cells, IgG
human CD33 Y49Q (human) = human CD33 Y49Q (human) (UniProt P20138); experiment: flow cytometry on transfected cells, IgG
human CD33 Y49S (human) = human CD33 Y49S (human) (UniProt P20138); experiment: flow cytometry on transfected cells, IgG
human CD33 Y49S (human), sequence (P20138 18-364 Y49S limits assumed): as the sequence (P20138 18-364 F44L limits assumed) above, with L27F, Y32S counted along it

human CD33 Y49T (human) = human CD33 Y49T (human) (UniProt P20138); experiment: flow cytometry on transfected cells, IgG
human CD33 Y49V (human) = human CD33 Y49V (human) (UniProt P20138); experiment: flow cytometry on transfected cells, IgG
human CD33 Y49V (human), sequence (P20138 18-364 Y49V limits assumed): as the sequence (P20138 18-364 F44L limits assumed) above, with L27F, Y32V counted along it

human CD33 Y50I (human) = human CD33 Y50I (human) (UniProt P20138); experiment: flow cytometry on transfected cells, IgG
human CD33 Y50N (human) = human CD33 Y50N (human) (UniProt P20138); experiment: flow cytometry on transfected cells, IgG
human CD33 Y50P (human) = human CD33 Y50P (human) (UniProt P20138); experiment: flow cytometry on transfected cells, IgG
human CD33 Y50P (human), sequence (P20138 18-364 Y50P limits assumed): as the sequence (P20138 18-364 F44L limits assumed) above, with L27F, Y33P counted along it

human CD33 Y50Q (human) = human CD33 Y50Q (human) (UniProt P20138); experiment: flow cytometry on transfected cells, IgG
human CD33 Y50R (human) = human CD33 Y50R (human) (UniProt P20138); experiment: flow cytometry on transfected cells, IgG
human CD33 Y50S (human) = human CD33 Y50S (human) (UniProt P20138); experiment: flow cytometry on transfected cells, IgG
[1] = molecular target: human wild-type CD33 (human) (UniProt P20138); experiment: flow cytometry, IgG at 0.25 ug/ml on HEK293-T cells expressing CD33 against vector alone

human CD33 F43V (human), sequence (P20138 18-364 F43V limits assumed): as the sequence (P20138 18-364 F44L limits assumed) above, with F26V, L27F counted along it

## Refmab #7 (WM53) (antibody)
Human CD33 F43L (human)
  Mean % WT Binding: 94 % WT binding
Human CD33 F43V (human)
  Mean % WT Binding: 73.4 % WT binding
Human CD33 F44H (human)
  Mean % WT Binding: 82.4 % WT binding
Human CD33 F44I (human)
  Mean % WT Binding: 46.1 % WT binding
Human CD33 F44L (human)
  Mean % WT Binding: 99.6 % WT binding
Human CD33 F44P (human)
  Mean % WT Binding: 21.8 % WT binding
Human CD33 F44S (human)
  Mean % WT Binding: 31.8 % WT binding
Human CD33 H45Y (human)
  Mean % WT Binding: 75.7 % WT binding
Human CD33 I47E (human)
  Mean % WT Binding: 3.9 % WT binding
Human CD33 I47G (human)
  Mean % WT Binding: 15.1 % WT binding
Human CD33 I47N (human)
  Mean % WT Binding: 4.7 % WT binding
Human CD33 I47Q (human)
  Mean % WT Binding: 8.2 % WT binding
Human CD33 I47T (human)
  Mean % WT Binding: 32.7 % WT binding
Human CD33 I47V (human)
  Mean % WT Binding: 97.4 % WT binding
Human CD33 I47W (human)
  Mean % WT Binding: 45.4 % WT binding
Human CD33 I47Y (human)
  Mean % WT Binding: 79.6 % WT binding
Human CD33 P46F (human)
  Mean % WT Binding: 23 % WT binding
Human CD33 P46I (human)
  Mean % WT Binding: 107 % WT binding
Human CD33 P46R (human)
  Mean % WT Binding: 33.4 % WT binding
Human CD33 P46S (human)
  Mean % WT Binding: 96.4 % WT binding
Human CD33 P46Y (human)
  Mean % WT Binding: 8.6 % WT binding
Human CD33 P48D (human)
  Mean % WT Binding: 0.1 % WT binding
Human CD33 P48F (human)
  Mean % WT Binding: 0.2 % WT binding
Human CD33 P48G (human)
  Mean % WT Binding: 13.3 % WT binding
Human CD33 P48K (human)
  Mean % WT Binding: 1.6 % WT binding
Human CD33 P48L (human)
  Mean % WT Binding: 0.3 % WT binding
Human CD33 P48T (human)
  Mean % WT Binding: 1.6 % WT binding
Human CD33 P48V (human)
  Mean % WT Binding: 0.9 % WT binding
Human CD33 P48W (human)
  Mean % WT Binding: 0.7 % WT binding
Human CD33 T42N (human)
  Mean % WT Binding: 95.4 % WT binding
Human CD33 T42P (human)
  Mean % WT Binding: 15.9 % WT binding
Human CD33 Y49D (human)
  Mean % WT Binding: 3.9 % WT binding
Human CD33 Y49H (human)
  Mean % WT Binding: 27.8 % WT binding
Human CD33 Y49I (human)
  Mean % WT Binding: 0.2 % WT binding
Human CD33 Y49L (human)
  Mean % WT Binding: 1.6 % WT binding
Human CD33 Y49P (human)
  Mean % WT Binding: 11.7 % WT binding
Human CD33 Y49Q (human)
  Mean % WT Binding: 0.7 % WT binding
Human CD33 Y49S (human)
  Mean % WT Binding: 3.6 % WT binding
Human CD33 Y49T (human)
  Mean % WT Binding: 0.1 % WT binding
Human CD33 Y49V (human)
  Mean % WT Binding: 0.9 % WT binding
Human CD33 Y50I (human)
  Mean % WT Binding: 5.1 % WT binding
Human CD33 Y50N (human)
  Mean % WT Binding: 4.7 % WT binding
Human CD33 Y50P (human)
  Mean % WT Binding: 0.4 % WT binding
Human CD33 Y50Q (human)
  Mean % WT Binding: 7.2 % WT binding
Human CD33 Y50R (human)
  Mean % WT Binding: 1.7 % WT binding
Human CD33 Y50S (human)
  Mean % WT Binding: 7.7 % WT binding
[1]
  Signal:Background (signal:background ratio): 32
